The results in this text go back to US20210388081A1 (Memorial Sloan Kettering, published 2021).

Assay [1] concerns the target anti-FcRL5/CD3 bispecific antibody generated using the ET200-104 scFv. Briefly: ELISA, ET200-104 coated at 1 µg/ml on a Nunc Maxisorp plate; for some dilutions of the secondary Ab.
The target in assay [2] is anti-FcRL5/CD3 bispecific antibody generated using the ET200-117 scFv. Briefly: ELISA, ET200-117 coated at 1 µg/ml on a Nunc Maxisorp plate; for some dilutions of the secondary Ab. (In general: In an ELISA, binding on a coated surface is turned into a signal by an enzyme label.)
In assay [3] the target is T1, FcRL3, overexpressed on 3T3 cells (UniProt Q96P31 18-734, limits assumed).
T1 construct: whole, on cells
T1 sequence (looked up): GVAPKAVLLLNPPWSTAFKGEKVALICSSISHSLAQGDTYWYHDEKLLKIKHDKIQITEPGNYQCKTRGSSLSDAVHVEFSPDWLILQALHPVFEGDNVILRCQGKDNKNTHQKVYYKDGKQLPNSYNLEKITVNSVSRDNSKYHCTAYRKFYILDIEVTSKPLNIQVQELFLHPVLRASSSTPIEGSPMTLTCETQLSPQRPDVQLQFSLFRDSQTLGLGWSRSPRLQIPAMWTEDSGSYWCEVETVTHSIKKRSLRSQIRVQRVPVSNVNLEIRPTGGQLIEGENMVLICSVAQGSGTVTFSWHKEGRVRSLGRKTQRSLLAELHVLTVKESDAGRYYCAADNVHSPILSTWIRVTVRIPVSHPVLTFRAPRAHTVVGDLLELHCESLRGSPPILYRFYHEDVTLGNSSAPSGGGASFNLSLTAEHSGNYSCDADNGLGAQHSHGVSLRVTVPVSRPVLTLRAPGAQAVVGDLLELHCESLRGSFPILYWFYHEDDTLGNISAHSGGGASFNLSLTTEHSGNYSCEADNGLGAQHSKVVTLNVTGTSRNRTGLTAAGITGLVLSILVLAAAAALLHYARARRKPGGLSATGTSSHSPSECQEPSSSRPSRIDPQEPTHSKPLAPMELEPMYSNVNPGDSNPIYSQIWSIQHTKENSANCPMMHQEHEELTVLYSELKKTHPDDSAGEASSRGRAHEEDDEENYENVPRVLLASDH
Briefly: phage clone on 3T3-FcRL3 cells.

Assay [4] deals with T2, FcRL4, overexpressed on 3T3 cells (UniProt Q96PJ5 20-515, limits assumed).
T2 construct: whole, on cells
T2 sequence (looked up): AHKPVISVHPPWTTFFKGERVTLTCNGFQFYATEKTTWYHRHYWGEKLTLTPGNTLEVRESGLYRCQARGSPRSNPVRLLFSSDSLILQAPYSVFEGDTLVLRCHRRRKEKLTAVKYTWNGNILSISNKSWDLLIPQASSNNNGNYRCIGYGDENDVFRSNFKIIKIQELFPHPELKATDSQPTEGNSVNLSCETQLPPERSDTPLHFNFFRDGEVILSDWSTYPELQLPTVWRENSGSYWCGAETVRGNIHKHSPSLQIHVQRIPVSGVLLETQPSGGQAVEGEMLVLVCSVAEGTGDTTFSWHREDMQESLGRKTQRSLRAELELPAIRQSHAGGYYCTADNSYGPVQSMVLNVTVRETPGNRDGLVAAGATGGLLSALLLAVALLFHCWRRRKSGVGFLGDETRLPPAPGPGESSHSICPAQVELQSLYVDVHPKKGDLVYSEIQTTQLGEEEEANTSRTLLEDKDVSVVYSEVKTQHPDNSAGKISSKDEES
Briefly: phage clone on 3T3-FcRL4 cells.

Assay [5] addresses T3, FcRL1, overexpressed on 3T3 cells (UniProt Q96LA6 17-429, limits assumed).
T3 construct: whole, on cells
T3 sequence (looked up): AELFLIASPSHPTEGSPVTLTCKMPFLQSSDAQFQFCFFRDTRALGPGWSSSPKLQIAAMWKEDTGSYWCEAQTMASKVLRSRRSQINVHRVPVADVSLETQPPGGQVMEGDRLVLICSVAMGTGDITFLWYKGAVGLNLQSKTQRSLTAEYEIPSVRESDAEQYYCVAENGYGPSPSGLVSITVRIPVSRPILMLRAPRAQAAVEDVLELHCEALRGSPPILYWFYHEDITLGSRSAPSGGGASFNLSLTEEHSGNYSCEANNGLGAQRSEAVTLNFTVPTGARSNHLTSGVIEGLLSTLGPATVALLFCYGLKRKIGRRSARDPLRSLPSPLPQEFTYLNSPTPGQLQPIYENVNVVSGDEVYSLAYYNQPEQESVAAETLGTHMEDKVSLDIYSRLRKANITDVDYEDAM
Briefly: phage clone on 3T3-FcRL1 cells.

In assay [6] the target is T4, FcRL2, overexpressed on 3T3 cells (UniProt Q96LA5 20-508, limits assumed).
T4 construct: whole, on cells
T4 sequence (looked up): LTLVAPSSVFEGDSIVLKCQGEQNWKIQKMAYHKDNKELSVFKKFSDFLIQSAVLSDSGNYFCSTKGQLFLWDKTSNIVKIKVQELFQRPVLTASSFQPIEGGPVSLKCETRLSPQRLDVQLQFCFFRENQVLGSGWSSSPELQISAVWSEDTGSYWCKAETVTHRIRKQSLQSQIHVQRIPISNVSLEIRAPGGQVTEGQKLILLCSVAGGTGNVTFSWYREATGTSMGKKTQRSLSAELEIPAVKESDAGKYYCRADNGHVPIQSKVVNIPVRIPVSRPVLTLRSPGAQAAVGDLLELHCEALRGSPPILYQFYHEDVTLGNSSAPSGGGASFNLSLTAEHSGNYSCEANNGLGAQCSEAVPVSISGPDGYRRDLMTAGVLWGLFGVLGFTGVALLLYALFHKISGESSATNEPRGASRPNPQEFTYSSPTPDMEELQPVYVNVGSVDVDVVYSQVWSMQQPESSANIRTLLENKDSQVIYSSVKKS
Briefly: phage clone on 3T3-FcRL2 cells.

Assay [7] concerns the target T5, FcRL6, overexpressed on 3T3 cells (UniProt Q6DN72 20-434, limits assumed).
T5 construct: whole, on cells
T5 sequence (looked up): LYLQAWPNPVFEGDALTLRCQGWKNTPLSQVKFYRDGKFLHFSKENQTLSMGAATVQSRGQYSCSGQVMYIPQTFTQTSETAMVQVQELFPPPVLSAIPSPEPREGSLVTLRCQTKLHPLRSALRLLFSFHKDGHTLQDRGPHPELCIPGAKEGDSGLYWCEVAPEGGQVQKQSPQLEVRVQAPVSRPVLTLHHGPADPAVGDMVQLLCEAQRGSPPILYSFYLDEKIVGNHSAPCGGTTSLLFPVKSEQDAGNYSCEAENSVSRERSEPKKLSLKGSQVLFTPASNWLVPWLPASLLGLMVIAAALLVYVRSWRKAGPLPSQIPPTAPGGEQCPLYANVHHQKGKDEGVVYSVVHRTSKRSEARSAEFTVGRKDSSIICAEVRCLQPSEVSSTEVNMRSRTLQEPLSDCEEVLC
Briefly: phage clone on 3T3-FcRL6 cells.

Another assay has as its target SLAMF9 protein (UniProt Q96A28 19-236, limits assumed). Briefly: phage clone on SLAMF9 protein.

Sequence of SLAMF9 protein (Q96A28 19-236 limits assumed): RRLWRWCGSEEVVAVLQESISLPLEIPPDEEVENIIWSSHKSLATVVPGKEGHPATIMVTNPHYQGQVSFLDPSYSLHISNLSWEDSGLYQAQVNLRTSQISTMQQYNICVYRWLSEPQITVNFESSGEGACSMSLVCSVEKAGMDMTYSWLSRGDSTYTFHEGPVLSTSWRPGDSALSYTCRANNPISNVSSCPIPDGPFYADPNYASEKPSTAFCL
Sequence of anti-FcRL5/CD3 bispecific antibody generated using the ET200-117 scFv (scFv, as listed by the source limits assumed, form in doubt): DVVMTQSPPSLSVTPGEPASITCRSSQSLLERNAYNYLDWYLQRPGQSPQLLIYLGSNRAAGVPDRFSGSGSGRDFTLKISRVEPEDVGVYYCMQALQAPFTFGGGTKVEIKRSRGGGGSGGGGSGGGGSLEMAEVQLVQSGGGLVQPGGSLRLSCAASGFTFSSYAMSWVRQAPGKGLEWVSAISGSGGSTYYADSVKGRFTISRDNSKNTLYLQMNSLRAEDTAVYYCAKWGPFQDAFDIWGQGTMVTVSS

Take “Goat Anti-Human Ig-HRP (Southern Biotech; #2010/05) (antibody)”: the OD in assay [1] and in assay [2] was over 1 OD each time.

B1: ET200-024 (scFv)
scFv: NFMLTQPHSVSESPGKTVTISCTGSSGSIASNYVQWYQQRPGSAPTTVIYEDNQRPSGVPDRFSGSIDSSSNSASLTISGLKTEDEADYYCQSYDSSNLWVFGGGTKLTVLGSRGGGGSGGGGSGGGGSLEMAQMQLVQSGAEVKKPGSSVKVSCKASGGTFSSYAISWVRQAPGQGLEWMGGIIPIFGTANYAQKFQGRVTITADESTSTAYMELSSLRSEDTAVYYCARYNYYYYDSWGQGTLVTVSSTSGQAGQHHHHHHGAYPYDVPDYAS
notes: screened as phage clone; entry is VL-linker-VH-His tag-HA tag
Turning to B1, the binding result (in assay [3]; in assay [4]; in assay [5]; in assay [6]; in assay [7]; in the assay with SLAMF9 protein) was “no binding” in each case.

B2: ET200-037 (scFv)
scFv: SYVLTQPPSVSVAPGKTARITCGGNNIGSKSVHWYQQKPGQAPVLVIYYDSDRPSGIPERFSGSNSGNTATLTISRVEAGDEADYYCQVWDSSSDHPYVFGTGTKVTVLGSRGGGGSGGGGSGGGGSLEMAQMQLVQSGAEVKKPGASVKVSCKASGYTFTSYGISWVRQAPGQGLEWMGWISAYNGNTNYAQKLQGRVTMTTDTSTSTAYMELRSLRSDDTAVYYCARSMFGAHDSWGQGTLVTVSSTSGQAGQHHHHHHGAYPYDVPDYAS
notes: as for B1
With B2, the binding result (in assay [3]; in assay [4]; in assay [5]; in assay [6]; in assay [7]; with SLAMF9 protein) was “no binding” in each case.
